From patent US20250101071A1 (PAUL EHRLICH INSTITUT BUNDESINSTITUT F R IMPFSTOFFE UND …, published 2025)

Experiments:
[1] = target: T1, human CD32b expressed on cells (human, UniProt P31994 43-310); assay: flow cytometry, crude E. coli extract on SupT1-CD32b cells
T1 construct: also called SupT1-CD32b; CHO-CD32b
T1 sequence: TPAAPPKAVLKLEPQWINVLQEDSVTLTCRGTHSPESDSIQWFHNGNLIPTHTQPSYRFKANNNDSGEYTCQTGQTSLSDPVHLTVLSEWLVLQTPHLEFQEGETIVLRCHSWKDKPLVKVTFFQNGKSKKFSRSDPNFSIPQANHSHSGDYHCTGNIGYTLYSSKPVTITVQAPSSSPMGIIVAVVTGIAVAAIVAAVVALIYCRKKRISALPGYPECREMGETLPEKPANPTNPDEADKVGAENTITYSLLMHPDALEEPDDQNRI

neutravidin = target: T2, neutravidin (UniProt P02701 25-152); assay: SPR, Biacore T200, neutravidin NA chip
T2 construct: also called neutravidin NA chip (Cytiva)
T2 sequence (P02701 25-152): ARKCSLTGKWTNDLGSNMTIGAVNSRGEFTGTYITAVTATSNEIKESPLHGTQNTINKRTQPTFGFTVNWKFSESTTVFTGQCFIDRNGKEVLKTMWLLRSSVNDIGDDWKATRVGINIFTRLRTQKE

[2] = target: T3, recombinant human CD32b protein, biotinylated (human, UniProt P31994 43-217); assay: SPR, Biacore T200, biotinylated CD32b on neutravidin chip
T3 construct: also called CD32b-His; recombinant CD32b protein
T3 sequence: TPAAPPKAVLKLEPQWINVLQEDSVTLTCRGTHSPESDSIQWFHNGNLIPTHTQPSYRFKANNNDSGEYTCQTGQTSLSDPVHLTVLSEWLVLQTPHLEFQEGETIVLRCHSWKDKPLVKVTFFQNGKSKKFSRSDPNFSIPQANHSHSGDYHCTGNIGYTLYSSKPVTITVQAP

Binder | binding result [1] | binding result (neutravidin) | binding result [2]
DARPin 53.2.C8 (designed binder) DLGKKLLEAARAGQDDAVRILMANGADANAYDHMGETPLHLAAMEGHLEIVEVLLKHGADVNADDWDGQTPLHLAAHWGHLEIVEVLLKYGADVKEQDVVGYTPLHLAAWIGHLEIVEVLLKNGADVNAQDKFGKTPFDLAIDNGNEDIAEVLQKAA | no binding (tested: 5-25 µl of crude DARPin extracts) | – | –
DARPin 53.C1 (designed binder) DLGKKLLEAARVGQDDEVRILMANGADVNATDNEGQTPLHLAAMWGHLEIVEVQLKHGADVNASDTFGSTPLHLAARFGHLEIVEVLLKYGADVNAADTEGFTPLHLAAIDGHLEIVEVLLKHGADVNAQDKFGKTPFDLAIDNGNEDIAEVLQKAA | no binding (tested: 5-25 µl of crude DARPin extracts) | – | –
DARPin 53.D11 (designed binder) DLGKKLLEAARAGQDDEVRILMANGADVNATDITGATPLHLAAMWGHLEIVEVLLKYGADVNAQDYEGYTTLHLAAMWGHLEIVEVLLKYGADVNAHDVAGHTPLHLATHFGHLEIVEVLLKHGADVNAQDKFGKTPFDLAIDNGNEDIAEVLQKAA | no binding (tested: 5-25 µl of crude DARPin extracts) | – | –
DARPin 53.A11 (designed binder, also called 53.C9; 53.F7) DLGKKLLEATRAGQDDEVRILMANGADVNATDEEGLTPLHLAALIGHLEIVEVLLKYGADVNAADMDGTTPLHLAAQEGHLEIVEVLLKYGADVNADDFWGHTPLHLAAWFGHLEIVEVLLKHGADVNAQDKFGKTPFDLAIDNGNEDIAEVLQKAA | no binding (tested: 5-25 µl of crude DARPin extracts) | – | –
DARPin 53.2.D6 (designed binder) DLGKKLLDAASAGQDDEVRILMANGADVNATDEEGLTPLHLAALIGHLEIVEVLLKYGADVNAADMDGTTPLHLAAQEGHLEIVEVLLKYGADVNADDFWGHTPLHLAAWFGHLEIVEVLLKHGADVNAQDKFGKTPFDLAIDNGNEDIAEVLQKAA | no binding (tested: 5-25 µl of crude DARPin extracts) | – | –
DARPin 53.2.H5 (designed binder) DLGKKLLEATRAGQDDEVRILMANGADVNATDEEGLTPLHLAALIGHLEIVEVLLKYDADVNAADMDGTTPLHLAAQEGHLEIVEVLLKYGADVNADDFWGHTPLHLAPWFGHLEIVEVLLNHGADVNAQDKFGKTPFDLAIDNGNEDLAEVLQKAA | no binding (tested: 5-25 µl of crude DARPin extracts) | – | –
DARPin 53.2.B6 (designed binder) DLGKKLLEATRAGQDDEVRILMANGADVNATDEEGLTPLHLAALIGHLEIVEVLLKYGADVNAADMDGTTPLHLAAQEGHQEIVEVLLKYGADVNADDFWGHTPLHLAAWFGHLEIVEVLLKHGADVNAQDKFGKIPFDLAIDNGNEDIAEVLQKAA | no binding (tested: 5-25 µl of crude DARPin extracts) | – | –
DARPin 53.2.E10 (designed binder) DLGKKLLEATRAGQDDEVRILMANGADVNTTDEEGLTPLHLAALIGHLEIVEVLLKYGADVNAADMDGTTPLHLAAQEGHLEIVEVLLKYGADVNADDFWGHTPLHLAAWFGHLEIVEVLLKHGADVNAQDKFGKTPFDLAIDNGNEDIAEVLQKAA | no binding (tested: 5-25 µl of crude DARPin extracts) | – | –
DARPin 53.B8 (designed binder) DLGKKLLEATRAGQDDEVRILMTNGTDVNATDEEGLTPLHLAALIGHPEIVEVLLKYGADVNAADMDGTTPLHLAAQEGHLEIVEVLLKYCADVNADDFWGHTPLHLAAWFGHLEIVEVLLKYGADVNAQDKFGKTPFDLAIDNGNEDIAEVLQKAA | no binding (tested: 5-25 µl of crude DARPin extracts) | – | –
DARPin 53.2.H9 (designed binder) DLGKKLLEATRAGQDDEVRILMANGADVNATDEEGLTPLHLAALIGHLEIVEVLLKYGADVNAADMDGTTPLHLAVQEGHLEIVEVLLKYGADVNADDFWGHTPLHLAAWFGHLEIVEVLLKYGADVNAQDKFGKTPFDLAIDNGNEDIAEALQKAA | no binding (tested: 5-25 µl of crude DARPin extracts) | – | –
DARPin 53.H9 (designed binder) DLGKKLLEATRAGQDDEVRILMANGADVNATDEEGLTPLHLAALIGHLEIVEVLLKYGADVNAVDMDGTTPLHLAAQEGHLEIVEVLLKYGADVNADDFWGHTPLHLAAWFGHLEIVEVLLKHGADVNAQDKFGKTPFDLAIDNGNEDIAQVLQKAA | no binding (tested: 5-25 µl of crude DARPin extracts) | – | –
DARPin 53.D7 (designed binder) DLGKKLLEAARAGQDDEVRILMANGADVNATDEEGLTPLHLAALIGHLEIVEVLLKYGADVNAADMDGTTPLHLAAQEGHLEIVEVLLKYGADVNADDFWGHTPLHLAAWFGHLEIVEVLLKNGADVNAQDKFGKTPFDLAIDNGNEDIAEVLQKAA | no binding (tested: 5-25 µl of crude DARPin extracts) | – | –
DARPin 53.2.H4 (designed binder) DLGKKLLEATRAGQDDEVRILMANGADVNTTDEEGLTPLHLAALIGHLEIVEVLLKYGADVNAADMDGTTPLHLAAQEGHLEIVEVLLKYGADVNADDFWGHTPLHLAAWFGHLEIVDVLLANVADVNANSAQSKTPFDLAIDNGNEDIAEVLQKAA | no binding (tested: 5-25 µl of crude DARPin extracts) | – | –
DARPin 53.G7 (designed binder) DLGKKLLEATRAGQDDEVRILMANGADVNATDEEGLTPLHLAVLIGHLEIVDVLLKYGADVNAADMDGTTPLHLAAQEGHLEIVEVLLKYGADVNADDFWGHTPLHLAAWFGHLEIVEVLLKHGADVNAQDKFGKTPFDLAIDNGNEDIAEVLQKAA | no binding (tested: 5-25 µl of crude DARPin extracts) | – | –
DARPin 53.E11 (designed binder) DLGKKLLEAARAGQDDEVRILMANGADVNATDEEGLTPLHLAALIGHLEIVEVLLKYGTDVNAADMDGTTPLHLAAQEGHLEIVEVLLKYGADVNADDFWGHTPLHLAAWFGHLEIVEVLLKHGADVNAQDKFGKTPFDLAIDNGNEDIAEVLQKAA | no binding (tested: 5-25 µl of crude DARPin extracts) | – | –
DARPin 53.B10 (designed binder) DLGKKLLEATRAGQDDEVRILMANGADVNATDEEGLTPLHLAALIGHLEIVEVLLKYGADVNAADMDGTTPLHLAAQEGHLEIVEVLLKYGADVNADDFWGHTPLHLAAWFGHLEIVEVLLKNGADVNAQDKFGKTPFDLAIDNGNEDIAEVLQKAA | no binding (tested: 5-25 µl of crude DARPin extracts) | – | –
DARPin 53.A8 (designed binder) DLGKKLLEATRAGQDDEVRILMANGANVNATDEEGLTPLHLAALDGHLEIVEVLLKYGADVNADDMHGPTPLHLAAYAGHLEIVEVLLKYGADVNAYDCGGHTPLHLAARLGHLEIVEVLLKYGADVNAQDKFGKTPFDLAIDNGNEDIAEVLQKAA | no binding (tested: 5-25 µl of crude DARPin extracts) | no binding | no binding
DARPin 53.A10 (designed binder) DLGKKLLEAARAGQDDEVRILMSNGADVNAWDKEGVTPLHLAAVHGHLEIVEVLLKHGADVNAQDDVGMTPLHLAAHWGHLEIVEVLLKYGADVNAQDYAGMTPLHLAAFQGHLEIVEVLLKHGADVNAQDKFGKTPFDLAIDNGNEDIAQVLQKAA | no binding (tested: 5-25 µl of crude DARPin extracts) | – | –
DARPin 53.G1 (designed binder) DLGKKLLEATRAGQDDEVRILMSNGADVNAWDKEGVTPLHLAAVHGHLEIVEVLLKHGADVNAQDDVGMTPLHLAAHWGHLEIVEVLLKYGADVNAQDYAGMTPLHLAAFQGHLEIVEVLLKHGADVNAQDKFGKTPFDLAIDNGNEDIAEVLQKAA | no binding (tested: 5-25 µl of crude DARPin extracts) | – | –
